Measurements published in US20260256936A1, “BIOACTIVE CONJUGATES, PREPARATION METHOD AND USE THEREOF” (priority 2023, published 2026).
Like-named read-outs stand apart in the source and are kept apart here.

Assays:
Assay in all cases: cell-based or functional assay
[1] = molecular target: T1, B7H3 on B7H3-expressing cells (NCI-H358, NCI-H1048) (human, UniProt Q5ZPR3 29-534)
T1 sequence (looked up): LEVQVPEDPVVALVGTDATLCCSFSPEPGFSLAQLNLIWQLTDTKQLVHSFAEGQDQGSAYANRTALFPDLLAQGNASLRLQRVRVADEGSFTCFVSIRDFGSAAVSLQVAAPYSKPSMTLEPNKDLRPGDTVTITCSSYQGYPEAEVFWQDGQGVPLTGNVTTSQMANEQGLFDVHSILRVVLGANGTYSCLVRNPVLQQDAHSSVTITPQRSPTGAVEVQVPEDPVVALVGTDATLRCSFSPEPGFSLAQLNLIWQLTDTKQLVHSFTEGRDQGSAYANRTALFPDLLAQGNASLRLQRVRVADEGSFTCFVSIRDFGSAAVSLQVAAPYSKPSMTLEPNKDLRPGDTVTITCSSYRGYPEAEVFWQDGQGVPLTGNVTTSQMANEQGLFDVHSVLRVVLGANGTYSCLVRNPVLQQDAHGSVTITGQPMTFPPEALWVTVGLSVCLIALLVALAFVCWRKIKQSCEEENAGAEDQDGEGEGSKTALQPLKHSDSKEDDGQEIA

[2] = molecular target: T2, CLL1 on CLL1-expressing cells (U937, HL60) (human, UniProt Q5QGZ9 1-265)
T2 sequence (looked up): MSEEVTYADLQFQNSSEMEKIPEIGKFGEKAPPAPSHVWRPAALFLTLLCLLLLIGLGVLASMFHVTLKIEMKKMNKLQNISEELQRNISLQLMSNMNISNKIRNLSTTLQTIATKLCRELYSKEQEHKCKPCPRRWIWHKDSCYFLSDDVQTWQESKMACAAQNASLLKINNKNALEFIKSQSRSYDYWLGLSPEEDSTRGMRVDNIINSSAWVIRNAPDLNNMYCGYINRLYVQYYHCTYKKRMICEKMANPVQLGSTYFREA

[3] = molecular target: T2, CLL1 on CLL1-expressing cells (U937, …); remark: listed apart in the source
[4] = molecular target: T2, CLL1 on CLL1-expressing cells (U937, …); remark: listed apart in the source
[5] = molecular target: T2, CLL1 on CLL1-expressing cells (U937, …); remark: listed apart in the source

B1: ADC4-1 (antibody, human IgG1, kappa, V domains shown)
VH: QVQLVQSGAEVKKPGSSVKVSCKASGYTFTNYVMHWVRQAPGQGLEWMGYINPYNDDVKYNEKFKGRVTITADESTSTAYMELSSLRSEDTAVYYCARWGYYGSPLYYFDYWGQGTLVTVSS
VL: EIVLTQSPATLSLSPGERATLSCRASSRLIYMHWYQQKPGQAPRPLIYATSNLASGIPARFSGSGSGTDFTLTISSLEPEDFAVYYCQQWNSNPPTFGQGTKVEIKR
modifications: conjugator-linker-payload on cysteine thiols after TCEP reduction; positions not given
[1]
  EC50 (nM) direct cellular killing, NCI-H358: 0.1 nM
  EC50 (nM) direct cellular killing, NCI-H1048: 0.6 nM
  Emax (%) direct cellular killing, NCI-H358: 82.8%
  Emax (%) direct cellular killing, NCI-H1048: 83.6%

B2: ADC4-3 (antibody, human IgG1, kappa, V domains shown)
VH: QVQLVQSGAEVKKPGSSVKVSCKASGYTFTNYVMHWVRQAPGQGLEWMGYINPYNDDVKYNEKFKGRVTITADESTSTAYMELSSLRSEDTAVYYCARWGYYGSPLYYFDYWGQGTLVTVSS
VL: EIVLTQSPATLSLSPGERATLSCRASSRLIYMHWYQQKPGQAPRPLIYATSNLASGIPARFSGSGSGTDFTLTISSLEPEDFAVYYCQQWNSNPPTFGQGTKVEIKR
modifications: conjugator-linker-payload on cysteine thiols after TCEP reduction; positions not given
[1]
  EC50 (nM) direct cellular killing, NCI-H358: 0.1 nM
  EC50 (nM) direct cellular killing, NCI-H1048: 1.6 nM
  Emax (%) direct cellular killing, NCI-H358: 79.9%
  Emax (%) direct cellular killing, NCI-H1048: 80%

B3: ADC4-2 (antibody, human IgG1, kappa, V domains shown)
VH: QVQLVQSGAEVKKPGSSVKVSCKASGYTFTNYVMHWVRQAPGQGLEWMGYINPYNDDVKYNEKFKGRVTITADESTSTAYMELSSLRSEDTAVYYCARWGYYGSPLYYFDYWGQGTLVTVSS
VL: EIVLTQSPATLSLSPGERATLSCRASSRLIYMHWYQQKPGQAPRPLIYATSNLASGIPARFSGSGSGTDFTLTISSLEPEDFAVYYCQQWNSNPPTFGQGTKVEIKR
modifications: conjugator-linker-payload on cysteine thiols after TCEP reduction; positions not given
[1]
  EC50 (nM) direct cellular killing, NCI-H358: 0.1 nM
  Emax (%) direct cellular killing, NCI-H358: 81%
  Emax (%) direct cellular killing, NCI-H1048: 62%

B4: ADC3-2 (antibody, human IgG1, kappa, V domains shown)
VH: EVQLVQSGAEVKKPGASVKVSCKASGYSFTDYYMHWVRQAPGQGLEWIGRINPYAGAAFYSQNFKDRVTLTVDTSTSTAYLELSSLRSEDTAVYYCAIERGADLEGYAMDYWGQGTLVTVSS
VL: DIQMTQSPSSLSASVGDRVTITCRASQSVSTSSYNYMHWYQQKPGKPPKLLIKYASNLESGVPSRFSGSGSGTDFTLTISSLQPEDFATYYCQHSWEIPLTFGQGTKVEIKR
modifications: conjugator-linker-payload on cysteine thiols after TCEP reduction; positions not given
[2]
  EC50 (nM) direct cellular killing, HL60: 8.2 nM
  EC50 (nM) direct cellular killing, U937: 0.2 nM
  Emax (%) direct cellular killing, HL60: 55.9%

B5: ADC3-10 (antibody, human IgG1, kappa, V domains shown)
VH: EVQLVQSGAEVKKPGASVKVSCKASGYSFTDYYMHWVRQAPGQGLEWIGRINPYAGAAFYSQNFKDRVTLTVDTSTSTAYLELSSLRSEDTAVYYCAIERGADLEGYAMDYWGQGTLVTVSS
VL: DIQMTQSPSSLSASVGDRVTITCRASQSVSTSSYNYMHWYQQKPGKPPKLLIKYASNLESGVPSRFSGSGSGTDFTLTISSLQPEDFATYYCQHSWEIPLTFGQGTKVEIKR
modifications: conjugator-linker-payload on cysteine thiols after TCEP reduction; positions not given
[3]
  EC50 (nM) direct cellular killing, HL60: 1.2 nM
  EC50 (nM) direct cellular killing, U937: 0.7 nM
  Emax (%) direct cellular killing, HL60: 82.2%

B6: ADC3-4 (antibody, human IgG1, kappa, V domains shown)
VH: EVQLVQSGAEVKKPGASVKVSCKASGYSFTDYYMHWVRQAPGQGLEWIGRINPYAGAAFYSQNFKDRVTLTVDTSTSTAYLELSSLRSEDTAVYYCAIERGADLEGYAMDYWGQGTLVTVSS
VL: DIQMTQSPSSLSASVGDRVTITCRASQSVSTSSYNYMHWYQQKPGKPPKLLIKYASNLESGVPSRFSGSGSGTDFTLTISSLQPEDFATYYCQHSWEIPLTFGQGTKVEIKR
modifications: conjugator-linker-payload on cysteine thiols after TCEP reduction; positions not given
[2]
  EC50 (nM) direct cellular killing, HL60: 1.1 nM
  EC50 (nM) direct cellular killing, U937: 0.2 nM
  Emax (%) direct cellular killing, HL60: 98%

B7: ADC3-5 (antibody, human IgG1, kappa, V domains shown)
VH: EVQLVQSGAEVKKPGASVKVSCKASGYSFTDYYMHWVRQAPGQGLEWIGRINPYAGAAFYSQNFKDRVTLTVDTSTSTAYLELSSLRSEDTAVYYCAIERGADLEGYAMDYWGQGTLVTVSS
VL: DIQMTQSPSSLSASVGDRVTITCRASQSVSTSSYNYMHWYQQKPGKPPKLLIKYASNLESGVPSRFSGSGSGTDFTLTISSLQPEDFATYYCQHSWEIPLTFGQGTKVEIKR
modifications: conjugator-linker-payload on cysteine thiols after TCEP reduction; positions not given
[4]
  EC50 (nM) direct cellular killing, U937: 1 nM
  Emax (%) direct cellular killing, HL60: 79.8%

B8: ADC3-7 (antibody, human IgG1, kappa, V domains shown)
VH: EVQLVQSGAEVKKPGASVKVSCKASGYSFTDYYMHWVRQAPGQGLEWIGRINPYAGAAFYSQNFKDRVTLTVDTSTSTAYLELSSLRSEDTAVYYCAIERGADLEGYAMDYWGQGTLVTVSS
VL: DIQMTQSPSSLSASVGDRVTITCRASQSVSTSSYNYMHWYQQKPGKPPKLLIKYASNLESGVPSRFSGSGSGTDFTLTISSLQPEDFATYYCQHSWEIPLTFGQGTKVEIKR
modifications: conjugator-linker-payload on cysteine thiols after TCEP reduction; positions not given
[5]
  EC50 (nM) direct cellular killing, HL60: 0.4 nM
  EC50 (nM) direct cellular killing, U937: 0.3 nM

B9: ADC3-8 (antibody, human IgG1, kappa, V domains shown)
VH: EVQLVQSGAEVKKPGASVKVSCKASGYSFTDYYMHWVRQAPGQGLEWIGRINPYAGAAFYSQNFKDRVTLTVDTSTSTAYLELSSLRSEDTAVYYCAIERGADLEGYAMDYWGQGTLVTVSS
VL: DIQMTQSPSSLSASVGDRVTITCRASQSVSTSSYNYMHWYQQKPGKPPKLLIKYASNLESGVPSRFSGSGSGTDFTLTISSLQPEDFATYYCQHSWEIPLTFGQGTKVEIKR
modifications: conjugator-linker-payload on cysteine thiols after TCEP reduction; positions not given
[5]
  EC50 (nM) direct cellular killing, HL60: 0.1 nM
  EC50 (nM) direct cellular killing, U937: 0.2 nM

B10: ADC3-3 (antibody, human IgG1, kappa, V domains shown)
VH: EVQLVQSGAEVKKPGASVKVSCKASGYSFTDYYMHWVRQAPGQGLEWIGRINPYAGAAFYSQNFKDRVTLTVDTSTSTAYLELSSLRSEDTAVYYCAIERGADLEGYAMDYWGQGTLVTVSS
VL: DIQMTQSPSSLSASVGDRVTITCRASQSVSTSSYNYMHWYQQKPGKPPKLLIKYASNLESGVPSRFSGSGSGTDFTLTISSLQPEDFATYYCQHSWEIPLTFGQGTKVEIKR
modifications: conjugator-linker-payload on cysteine thiols after TCEP reduction; positions not given
[2]
  EC50 (nM) direct cellular killing, HL60: 1.6 nM
  EC50 (nM) direct cellular killing, U937: 0.2 nM

B11: ADC3-11 (antibody, human IgG1, kappa, V domains shown)
VH: EVQLVQSGAEVKKPGASVKVSCKASGYSFTDYYMHWVRQAPGQGLEWIGRINPYAGAAFYSQNFKDRVTLTVDTSTSTAYLELSSLRSEDTAVYYCAIERGADLEGYAMDYWGQGTLVTVSS
VL: DIQMTQSPSSLSASVGDRVTITCRASQSVSTSSYNYMHWYQQKPGKPPKLLIKYASNLESGVPSRFSGSGSGTDFTLTISSLQPEDFATYYCQHSWEIPLTFGQGTKVEIKR
modifications: conjugator-linker-payload on cysteine thiols after TCEP reduction; positions not given
[3]
  EC50 (nM) direct cellular killing, HL60: 4.6 nM
  EC50 (nM) direct cellular killing, U937: 12.8 nM
  Emax (%) direct cellular killing, HL60: 43.9%
  Emax (%) direct cellular killing, U937: 78.7%

B12: ADC3-12 (antibody, human IgG1, kappa, V domains shown)
VH: EVQLVQSGAEVKKPGASVKVSCKASGYSFTDYYMHWVRQAPGQGLEWIGRINPYAGAAFYSQNFKDRVTLTVDTSTSTAYLELSSLRSEDTAVYYCAIERGADLEGYAMDYWGQGTLVTVSS
VL: DIQMTQSPSSLSASVGDRVTITCRASQSVSTSSYNYMHWYQQKPGKPPKLLIKYASNLESGVPSRFSGSGSGTDFTLTISSLQPEDFATYYCQHSWEIPLTFGQGTKVEIKR
modifications: conjugator-linker-payload on cysteine thiols after TCEP reduction; positions not given
[3]
  EC50 (nM) direct cellular killing, HL60: 8 nM
  EC50 (nM) direct cellular killing, U937: 0.7 nM
  Emax (%) direct cellular killing, HL60: 81%

B13: ADC3-9 (antibody, human IgG1, kappa, V domains shown)
VH: EVQLVQSGAEVKKPGASVKVSCKASGYSFTDYYMHWVRQAPGQGLEWIGRINPYAGAAFYSQNFKDRVTLTVDTSTSTAYLELSSLRSEDTAVYYCAIERGADLEGYAMDYWGQGTLVTVSS
VL: DIQMTQSPSSLSASVGDRVTITCRASQSVSTSSYNYMHWYQQKPGKPPKLLIKYASNLESGVPSRFSGSGSGTDFTLTISSLQPEDFATYYCQHSWEIPLTFGQGTKVEIKR
modifications: conjugator-linker-payload on cysteine thiols after TCEP reduction; positions not given
[5]
  EC50 (nM) direct cellular killing, HL60: 1.7 nM
  EC50 (nM) direct cellular killing, U937: 0.6 nM

B14: ADC3-1 (antibody, human IgG1, kappa, V domains shown)
VH: EVQLVQSGAEVKKPGASVKVSCKASGYSFTDYYMHWVRQAPGQGLEWIGRINPYAGAAFYSQNFKDRVTLTVDTSTSTAYLELSSLRSEDTAVYYCAIERGADLEGYAMDYWGQGTLVTVSS
VL: DIQMTQSPSSLSASVGDRVTITCRASQSVSTSSYNYMHWYQQKPGKPPKLLIKYASNLESGVPSRFSGSGSGTDFTLTISSLQPEDFATYYCQHSWEIPLTFGQGTKVEIKR
modifications: conjugator-linker-payload on cysteine thiols after TCEP reduction; positions not given
[2]
  EC50 (nM) direct cellular killing, HL60: 5.7 nM
  EC50 (nM) direct cellular killing, U937: 0.5 nM
